The text below walks through data of the supplement of paper PMC12764529.

± gives the half width of the 95% confidence interval.

The nature of data set [1]: folding stability dG unfold from trypsin proteolysis; higher = more stable. The procedure, abridged:
(§1)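 Sequencing followed digestion of designed mini-proteins with trypsin and chymotrypsin, each at 11 concentrations in threefold dilutions together with a no-protease condition. The mini-proteins were under 80 residues, had no cysteine, sat in a PA-tagged cDNA display construct, and were kept only if AlphaFold2 dimer inter-PAE was above 15. From the counts, Bayesian fitting gave K50, and unfolding free energy was derived against a sequence-predicted unfolded-state K50 and a shared folded-state K50, per protease or combined.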

A short description of data set [2]: folding stability dG unfold from chymotrypsin proteolysis; higher = more stable. An outline of the steps: as §1
Data set [3] in a line: folding stability dG unfold (combined trypsin and chymotrypsin); higher = more stable. An outline of the steps: as §1

Take “SAGGSAWPAKEIAKELNPGFPVDVEPEPVPNKDGKDMVTIEARFPNGWKIQIVFRNGKPEAIQWQKSAGGSA [r15_417_TrROS]”: the “folding stability dG unfold” value was determined as 1.47 ± 0.032 kcal/mol in data set [1], 2.28 ± 0.11 kcal/mol in data set [2] and 1.97 ± 0.095 kcal/mol in data set [3].
As to “SAGGSDDPAKDIDLDIPVVVLEEEEARELARELDKPIIFRLPDGRLRVFYPDGREEEFPLPKPEELSAGGSA [r2_34_TrMRF]”, the “folding stability dG unfold” value is 3.38 ± 0.066 kcal/mol in data set [1], 2.65 ± 0.022 kcal/mol in data set [2] and 2.96 ± 0.039 kcal/mol in data set [3].
Turning to “SAGGSDEVTIDFQVKYNGQPFTVRITIERDPPDGKIEIPVEISYPNPEMREPAREIARNIVRELLNSAGGSA [r2_259_TrROS]”, the “folding stability dG unfold” value came out at 0.873 ± 0.07 kcal/mol in data set [1], 1.66 ± 0.17 kcal/mol in data set [2] and 1.32 ± 0.095 kcal/mol in data set [3].
Regarding “SAGGSDKEHDVEIKINIYVHDDGYIHIDIEVYNPGSPRPIMKFTIHIPAKDMQKKTGRPMTLEDILSAGGSA [r2_180_TrROS]”, the results for the “folding stability dG unfold” value in data set [1], in data set [2] and in data set [3] were 1.73 ± 0.16 kcal/mol, 2.75 ± 0.074 kcal/mol and 2.38 ± 0.2 kcal/mol, respectively.
For “SAGGSDKVVEIPIDIPNGYTVTIRMHPDDGTARVEVSPNMPPNRVLEKIKKIFDDNGYRILPIEIVSAGGSA [r2_497_TrROS]”, the “folding stability dG unfold” value in data set [1] stood at 1.2 ± 0.03 kcal/mol; in data set [2], 0.796 ± 0.053 kcal/mol; in data set [3], 1.01 ± 0.077 kcal/mol.
As to “SAGGSDTLKKLFPGVKEIEIEVEPYWVPMPPEMAKDNPEAPGQTFPVPRVKITIKIELPRDPDGKLSAGGSA [r2_404_TrROS]”, the “folding stability dG unfold” value in data set [1] was 1.09 ± 0.065 kcal/mol; in data set [2], 0.324 ± 0.18 kcal/mol; in data set [3], 0.772 ± 0.12 kcal/mol.
With “SAGGSEEERKRILEELKKKNPEKDVEVKVERKTYKVPAGTVVTLPDGTKIVAPADTTVEIYKVEIIKSAGGS [r16_357_JUSTAS]”, the “folding stability dG unfold” value in data set [1] was determined as 1.32 ± 0.068 kcal/mol; in data set [2], 2.14 ± 0.037 kcal/mol; in data set [3], 1.95 ± 0.2 kcal/mol.
“SAGGSEFEIIEVKDGTVVIRNKKTNELITVKVKIEVKPPPPVVVKKPGEEVTVKEGKKVTVLKEGEKKSAGG [r13_322_TrROS_Hall]”: the “folding stability dG unfold” value in data set [1] was -0.188 ± 0.18 kcal/mol; in data set [2] it was 0.916 ± 0.13 kcal/mol; in data set [3], 0.498 ± 0.18 kcal/mol.
Consider “SAGGSEFPLRITDIHILGGYIVITFQVPPGLDKLEIKIKIELGGKPIEVTMEYTPGNGYMTMIIRLSAGGSA [r2_261_TrROS]”, for which the “folding stability dG unfold” value in data set [1] was 4.46 ± 0.21 kcal/mol; in data set [2], 5.52 ± 0.14 kcal/mol; in data set [3], 5.57 ± 0.31 kcal/mol.
In the same order, the values of “SAGGSEITEEEAEKLKELFPNADITVEKVKPGETKTFPNGFRIEKTEDGYRVTVTLPNGEKLEFPVSAGGSA [r2_166_TrROS_Hall]” are 1.1 ± 0.043 kcal/mol, 1.37 ± 0.053 kcal/mol and 1.33 ± 0.11 kcal/mol.
Consider “SAGGSELKPGDLVVRIEIKVEVEEVRVNENGEVEVKLRVEIRIEVRPLPPPPEPSEEELLNPDGEESAGGSA [r2_495_TrROS_Hall]”, for which the entries for the “folding stability dG unfold” value in data set [1], in data set [2] and in data set [3] were 2.74 ± 0.27 kcal/mol, 1.89 ± 0.12 kcal/mol and 2.33 ± 0.27 kcal/mol, respectively.
For “SAGGSELTLTVKVTVTVEVNGKTFTVEATLTLRFRPAPPPPKVRLERDADGNLRVTDANGKTRELRFSAGGS [r16_136_TrROS_Hall]”, the “folding stability dG unfold” value worked out at 2.42 ± 0.17 kcal/mol in data set [1], 2.8 ± 0.1 kcal/mol in data set [2] and 2.61 ± 0.23 kcal/mol in data set [3].
Regarding “SAGGSEVTLKVKVRRKVFKDGKLVAEEEVEKEVRVKLPPPPKIELSPELRKALEENDLEKIKKALESAGGSA [r2_196_TrROS_Hall]”, the “folding stability dG unfold” value in data set [1] stood at 1.43 ± 0.066 kcal/mol; in data set [2] it was 1.74 ± 0.053 kcal/mol; in data set [3] it was 1.62 ± 0.11 kcal/mol.
In the same order, the values of “SAGGSEWQPIYEFDLPGKKIKVYMPPDGNYRIEVEKKGKPVNFWVPPNMSPSSIDNMLDQAKEQLNSAGGSA [r2_243_TrROS]” are -0.0661 ± 0.25 kcal/mol, 0.339 ± 0.16 kcal/mol and 0.343 ± 0.26 kcal/mol.
With “SAGGSFKIHWFDDPEAAEEAAKDMDPGKIIILPDPKNPKYYIVIVVKDKIFRYEIDNGNIKIEPIPSAGGSA [r2_280_TrROS]”, the “folding stability dG unfold” value is 1.86 ± 0.072 kcal/mol in data set [1], 2.3 ± 0.029 kcal/mol in data set [2] and 2.11 ± 0.08 kcal/mol in data set [3].
In the case of “SAGGSFTSEPNPNAPPDQPETITDPSKGVTTEVYFDTEKGTVSTTTTTTGDGTPTTSTSTTAIDPAAASAGG [r13_851_JUSTAS]”, the “folding stability dG unfold” value was found to be 1.33 ± 0.15 kcal/mol in data set [1], 1.37 ± 0.085 kcal/mol in data set [2] and 1.34 ± 0.18 kcal/mol in data set [3].
With “SAGGSGATYLSKYEIPLPNGKKLTIIEAYKNPETDLILYIAKTDDGTEYPFVYPSSWSPEDAIKALISSAGG [r13_470_TrMRF]”, the “folding stability dG unfold” value in data set [1] is 2.25 ± 0.082 kcal/mol; in data set [2] it was 2.91 ± 0.034 kcal/mol; in data set [3], 2.69 ± 0.086 kcal/mol.
In the same order, the values of “SAGGSGKIKEAVEAAIENPGKTVEVTVERPDGYPVKIKVDPKTGKITLEVIHPDGTTSRKEFEIKPSAGGSA [r2_263_TrMRF]” are 0.807 ± 0.071 kcal/mol, 0.669 ± 0.046 kcal/mol and 0.83 ± 0.17 kcal/mol.
For “SAGGSGMEAKLLEEALEAELKAKGYKVEVKVTVTKSFSVQEGGLPSSTTTVTIEITVRDPKTGKKVSAGGSA [r2_434_JUSTAS]”, in that order: 1.62 ± 0.09 kcal/mol, 3.09 ± 0.1 kcal/mol and 2.56 ± 0.16 kcal/mol.
With “SAGGSGPDVPLEEIARRIAEELGVPILSVDFERDPEAPVVTIRVTFRSPAPGRLEERTVVLPRELLSAGGSA [r2_156_JUSTAS]”, the “folding stability dG unfold” value in data set [1] amounted to 0.942 ± 0.035 kcal/mol; in data set [2], 0.759 ± 0.083 kcal/mol; in data set [3] it was 0.883 ± 0.068 kcal/mol.
In the case of “SAGGSGPSAPRTLTLDLPELPPGVKITVTVDFPGGRTFTGGVTERTATVDLPVPDGLEVESVTVQLESAGGS [r16_179_JUSTAS]”, the “folding stability dG unfold” value in data set [1] was found to be 0.00568 ± 0.1 kcal/mol; in data set [2], 0.00426 ± 0.16 kcal/mol; in data set [3], 0.0729 ± 0.085 kcal/mol.
In the case of “SAGGSGTMKVEVSKDGGKLTVKSEFPSGGYGVSDDSGKLATLEYDPEKGTTTVTFPDGTVRTLTYPGSAGGS [r16_602_JUSTAS]”, the “folding stability dG unfold” value in data set [1] was found to be 0.0159 ± 0.11 kcal/mol; in data set [2] it was 0.647 ± 0.089 kcal/mol; in data set [3] it was 0.501 ± 0.12 kcal/mol.
For “SAGGSGVPLKITKVEVVGDKVVLTFEVPESLGTLKLNLTFELGGKPVEVEAEFDPETKYAVVVVGGSAGGSA [r2_261_TrMRF]”, in that order: 2.37 ± 0.051 kcal/mol, 2.52 ± 0.061 kcal/mol and 2.49 ± 0.092 kcal/mol.
Consider “SAGGSHEYTHEYRIPGGYAIRIKTKWRFNPGNNNIQIEEPDIELVPLPPVPPPPVPPEDADKNGIPPDDSAG [r5_393_TrROS]”, for which the “folding stability dG unfold” value in data set [1] worked out at 1.19 ± 0.019 kcal/mol; in data set [2] it was 2.29 ± 0.12 kcal/mol; in data set [3] it was 1.74 ± 0.12 kcal/mol.
For “SAGGSIEEIAETLRDLLAPPEYEVDVEVVEVEVDPINPRIKRVRLKATVYPPDGSSREIEFEIPFDELSAGG [r13_215_TrMRF]”, the “folding stability dG unfold” value in data set [1] was 1.68 ± 0.042 kcal/mol; in data set [2], 1.77 ± 0.029 kcal/mol; in data set [3], 1.71 ± 0.062 kcal/mol.
As for “SAGGSIEEILKAIPDAEKYEIDREKGIAYVTKKNTLYIVTVPRTSLPSPNGVLEPVSPISIKELPLESAGGS [r16_65_JUSTAS]”, the “folding stability dG unfold” value is 0.128 ± 0.047 kcal/mol in data set [1], 0.538 ± 0.1 kcal/mol in data set [2] and 0.447 ± 0.089 kcal/mol in data set [3].
Regarding “SAGGSIRELAKELAREFAEEHGIKEVEVKVEPYPNGWIKIEVSVEGPNGEPIGEWPIQIPIPPDQISAGGSA [r2_153_TrROS]”, the results for the “folding stability dG unfold” value in data set [1], in data set [2] and in data set [3] were 0.199 ± 0.071 kcal/mol, 0.74 ± 0.018 kcal/mol and 0.561 ± 0.11 kcal/mol, respectively.
In the case of “SAGGSITLPPVELPNGEKVTVTIEITPVPGAPPEERYRVTVTRTNPKTGTTETTELEVTRKGSVVTLESAGG [r13_208_JUSTAS]”, the “folding stability dG unfold” value came out at 2.16 ± 0.059 kcal/mol in data set [1], 1.5 ± 0.022 kcal/mol in data set [2] and 1.88 ± 0.099 kcal/mol in data set [3].
Turning to “SAGGSKAKIVEAEIVEFDPEKGKITIRIKANGKTFEIEFPPGVKKIKLKVKLENGEEKEIEITIKPSAGGSA [r2_132_TrROS_Hall]”, the results for the “folding stability dG unfold” value in data set [1], in data set [2] and in data set [3] were 1.85 ± 0.044 kcal/mol, 3.01 ± 0.14 kcal/mol and 2.59 ± 0.16 kcal/mol, respectively.
For “SAGGSKEYEVKIVKIKEVKVENGKVYIKLEVEVRDKKTGKLLPSAEELAKELKKKFPNLKIEVKKPSAGGSA [r2_27_TrROS_Hall]”, the results for the “folding stability dG unfold” value in data set [1], in data set [2] and in data set [3] were 2.24 ± 0.13 kcal/mol, 2.4 ± 0.12 kcal/mol and 2.42 ± 0.24 kcal/mol, respectively.
Regarding “SAGGSKIEVKIEEENGTLTITVTVYDENGEQIAEITVTITLPAPKPPEKELVKAESPEEKEEALKQSAGGSA [r2_332_TrROS_Hall]”, the entries for the “folding stability dG unfold” value in data set [1], in data set [2] and in data set [3] were 2.25 ± 0.12 kcal/mol, 1.8 ± 0.12 kcal/mol and 1.65 ± 0.35 kcal/mol, respectively.
In the same order, the values of “SAGGSKIKELLDAIKKAIEEGKEEVTIEVTLPNGSKIKFYPDGTIEITNKNGEKKTIKIKADDIKPSAGGSA [r2_97_TrROS_Hall]” are 2.29 ± 0.23 kcal/mol, 1.44 ± 0.1 kcal/mol and 1.99 ± 0.27 kcal/mol.
For “SAGGSKIQISIWEDPENDYTWVTIWFPDDEELVDFFVEDIADLGVKKVETERFPDNGWRRITILIRSAGGSA [r2_358_TrROS]”, in that order: 2.43 ± 0.063 kcal/mol, 3.27 ± 0.066 kcal/mol and 2.97 ± 0.12 kcal/mol.
Turning to “SAGGSKKEIEALKGKTVTFPKIRDPKTNELLEPVKVKIVEVKYDKDTKKIYIKVEVDGKIYTFEIDSAGGSA [r2_314_TrROS_Hall]”, the “folding stability dG unfold” value in data set [1] is 0.868 ± 0.19 kcal/mol; in data set [2] it was 2.85 ± 0.062 kcal/mol; in data set [3], 2.5 ± 0.37 kcal/mol.
In the case of “SAGGSKKIVKEMKSKEVIDLAKKLKEKKDIIIVVKLNGKVKVLDLDKVKPIPDKNVKAIIEIKPKKKSAGGS [r16_628_TrMRF]”, the figures for the “folding stability dG unfold” value in data set [1], in data set [2] and in data set [3] were 0.571 ± 0.22 kcal/mol, 0.901 ± 0.094 kcal/mol and 0.745 ± 0.29 kcal/mol, respectively.
With “SAGGSKKKEEVKEIDVVLVEVSEEEALKLAEETGKAVIVVFPDGELRIFYPDGTVETIKLPDLEELSAGGSA [r2_34_TrROS_Hall]”, the “folding stability dG unfold” value worked out at 0.377 ± 0.062 kcal/mol in data set [1], 0.0647 ± 0.082 kcal/mol in data set [2] and 0.296 ± 0.21 kcal/mol in data set [3].
